This is an account of results in paper PMC4753561.

Several values for one entry are separate records, joined by “and”; a condition that tells them apart may be missing. Equal entries are not always repeated. Where two headings read alike, the source gives them in different places.

In experiment [1] the target is Hepatitis B Virus core protein assembly domain (Cp149) dimer (Hepatitis B Virus). Put plainly: SEC. (In general: SEC sorts molecules by how far they enter the pores of the column.)
Experiment [2] shares this target. Put plainly: resistive-pulse sensing.
Experiment [3] has the same target. Put plainly: resistive-pulse sensing. The source holds these as a separate data set.

A word on the stoichiometry N: it is a count of units in the complex or per binding partner.

Regarding “Hepatitis B Virus core protein assembly domain (Cp149) dimer (domain or fragment)”, the pseudo-critical dimer concentration in experiment [1] and in experiment [2] was 0.5 µM throughout. In addition, the stoichiometry N in experiment [2] is 105 dimers and 77 dimers; in experiment [3], 90 subunit and 120 subunit.
